Here are results for one molecule from article PMC6754785 (Nature microbiology, 2019).

This experiment has as its target T1, NXF1 (residues 117–619) (human, UniProt Q9UBU9 117-619).
T1 sequence: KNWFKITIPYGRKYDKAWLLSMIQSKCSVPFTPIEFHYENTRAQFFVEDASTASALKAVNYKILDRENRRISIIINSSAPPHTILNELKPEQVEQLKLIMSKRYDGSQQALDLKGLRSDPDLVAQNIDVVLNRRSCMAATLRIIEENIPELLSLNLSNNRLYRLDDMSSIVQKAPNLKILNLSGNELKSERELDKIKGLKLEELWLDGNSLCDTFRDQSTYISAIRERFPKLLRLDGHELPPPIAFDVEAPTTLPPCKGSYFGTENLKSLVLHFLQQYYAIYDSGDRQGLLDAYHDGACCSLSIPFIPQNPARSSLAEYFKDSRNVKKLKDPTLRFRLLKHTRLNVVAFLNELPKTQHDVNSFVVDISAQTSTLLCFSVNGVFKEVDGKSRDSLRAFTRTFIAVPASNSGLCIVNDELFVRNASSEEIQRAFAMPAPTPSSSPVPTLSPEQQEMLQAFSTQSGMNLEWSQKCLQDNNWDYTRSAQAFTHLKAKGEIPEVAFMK
The experiment in a line: crystal structure.

B1: NXT1 (residues 1–140) (natural protein)
chain: MASVDFKTYVDQACRAAEEFVNVYYTTMDKRRRLLSRLYMGTATLVWNGNAVSGQESLSEFFEMLPSSEFQISVVDCQPVHDEATPSQTTVLVVICGSVKFEGNKQRDFNQNFILTAQASPSNTVWKIASDCFRFQDWAS
For B1, the binding result is given as “binds”.
